Experimental data as given in the supplement of paper PMC7125110.
± gives the standard error. For part of these data: Variants at the floor of the assay were thinned out.

B1: glmS ribozyme (parent)
chain: AUAAAAGCGCCAGAACUACAGAAAUGUAGUUGACGAGGAGGAGGUUUAUCGAAUUUUCGGCGGAUGCCUCCAAA

What was measured:
Conditions in all cases: with glucosamine-6-phosphate
glucosamine-6-phosphate [1] = variants of: B1; test: kcat; higher = faster cleavage; RNA array
Outline: (§1)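 Tiles of sequenced MiSeq chips were imaged over ~14 h at 37 °C. On them, barcoded ribozyme variants had been transcribed in situ by E. coli RNA polymerase and were tracked via a hybridised Cy3 probe while glucosamine-6-phosphate (40 μM to 10 mM) in HEPES/KCl/Mg(OAc)2 buffer flowed in. Per-tile medians, normalised to baseline and to non-cleaving reference variants, were fit to one- or two-exponential decays for kobs, and weighted Michaelis–Menten fits gave kcat and KM.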

glucosamine-6-phosphate [2] = variants of: B1; test: KM; higher = weaker cofactor use; RNA array
Outline: as §1

glucosamine-6-phosphate [3] = variants of: B1; test: self-cleavage kobs at 2500 uM GlcN6P; higher = faster cleavage; RNA array
Outline: as §1

glucosamine-6-phosphate [4] = variants of: B1; test: self-cleavage kobs at 10000 uM GlcN6P; higher = faster cleavage; RNA array
Outline: as §1

glucosamine-6-phosphate [5] = variants of: B1; test: self-cleavage kobs at 640 uM GlcN6P; higher = faster cleavage; RNA array
Outline: as §1

glucosamine-6-phosphate [6] = variants of: B1; test: self-cleavage kobs at 40 uM GlcN6P; higher = faster cleavage; RNA array
Outline: as §1

glucosamine-6-phosphate [7] = variants of: B1; test: self-cleavage kobs at 160 uM GlcN6P; higher = faster cleavage; RNA array
Outline: as §1

Row | Variant | kcat (glucosamine-6-phosphate [1]) [s⁻¹] | KM (glucosamine-6-phosphate [2]) [µM] | self-cleavage kobs at 2500 uM GlcN6P (glucosamine-6-phosphate [3]) [s⁻¹] | self-cleavage kobs at 10000 uM GlcN6P (glucosamine-6-phosphate [4]) [s⁻¹] | self-cleavage kobs at 640 uM GlcN6P (glucosamine-6-phosphate [5]) [s⁻¹] | self-cleavage kobs at 40 uM GlcN6P (glucosamine-6-phosphate [6]) [s⁻¹] | self-cleavage kobs at 160 uM GlcN6P (glucosamine-6-phosphate [7]) [s⁻¹]
1 | G13A U45G | 8.96e-05 ± 7.9e-06 | 4310 ± 840 | 3.13e-05 ± 8.3e-06 | 6.32e-05 ± 1e-05 | – | – | –
2 | C10A C70U | 2.11e-05 ± 9.5e-06 | – | 2.56e-05 ± 1.3e-05 | – | – | – | –
3 | G40U U46A | 0.000471 ± 0.00012 | 2940 ± 1400 | 0.00028 ± 5.4e-05 | 0.000331 ± 7.2e-05 | 6.83e-05 ± 2.4e-05 | – | –
4 | G32C C58U | 3.33e-05 ± 5.5e-06 | – | – | – | – | – | –
5 | G37C A64G | 9.23e-05 ± 9.1e-06 | 2450 ± 790 | 4.35e-05 ± 9.1e-06 | 7.49e-05 ± 8e-06 | – | – | –
6 | G32A U69G | 6.22e-05 ± 1.2e-05 | – | 5.99e-05 ± 9.1e-06 | 5.26e-05 ± 8.5e-06 | 0.000117 ± 1.8e-05 | 3.77e-05 ± 1.4e-05 | –
7 | A33C U54A | 0.00129 ± 0.00021 | 7810 ± 1700 | 0.000323 ± 6.1e-05 | 0.000722 ± 0.0001 | 9.44e-05 ± 1.2e-05 | – | 4.1e-05 ± 1.7e-05
8 | U46G A53U | 0.006 ± 0.0013 | 2190 ± 770 | 0.00253 ± 0.00059 | 0.00566 ± 0.00098 | 0.00141 ± 0.00032 | 0.000116 ± 2.4e-05 | –
9 | U31A U65A | 0.00266 ± 0.00015 | 3820 ± 350 | 0.00107 ± 0.00022 | 0.00191 ± 0.00022 | 0.000399 ± 5.4e-05 | 2.41e-05 ± 1.1e-05 | 9.46e-05 ± 3.5e-05
10 | U30A C58G G59A C70G | 2.1e-05 ± 2.6e-06 | – | – | – | – | – | –
11 | C16U C70A | 0.000203 ± 1.9e-05 | 296 ± 79 | 0.000204 ± 2.2e-05 | 0.000177 ± 2e-05 | 0.000148 ± 2.1e-05 | – | 7.15e-05 ± 9.6e-06
12 | A42U U55C | 0.000267 ± 2.5e-05 | 1350 ± 250 | 0.000198 ± 3e-05 | 0.000223 ± 3e-05 | 8.56e-05 ± 9.8e-06 | – | –
13 | A39C | 0.00949 ± 0.0017 | 2180 ± 510 | 0.00591 ± 0.00018 | 0.00752 ± 0.00019 | 0.00208 ± 7.2e-05 | 0.000188 ± 3.3e-06 | 0.000491 ± 1.8e-05
14 | A48C U54G | 0.000498 ± 0.00012 | 2740 ± 1200 | 0.000222 ± 2.4e-05 | 0.000402 ± 5e-05 | 0.000114 ± 1.4e-05 | – | –
15 | A14U U57G | 2.1e-05 ± 4e-06 | – | – | – | – | < 1e-05 | –
16 | A6C G13A A36U U56G | < 1e-05 | – | < 1e-05 | – | – | < 1e-05 | –
